pKd: −log10 of the molar value.
Assays:
Assay in all cases: SPR
[1] = biological target: human FcγRIIIa, His-tagged (human) (UniProt P08637)
[2] = biological target: neonatal Fc receptor (FcRn), soluble, His-tagged (UniProt P55899); conditions: pH 6.0; Running buffer not stated; Table 1 labels the measurement pH 6.0
[3] = biological target: human neonatal Fc receptor (FcRn), His-tagged (human) (UniProt P55899)

UniProt P08637, sequence (P08637 17-208): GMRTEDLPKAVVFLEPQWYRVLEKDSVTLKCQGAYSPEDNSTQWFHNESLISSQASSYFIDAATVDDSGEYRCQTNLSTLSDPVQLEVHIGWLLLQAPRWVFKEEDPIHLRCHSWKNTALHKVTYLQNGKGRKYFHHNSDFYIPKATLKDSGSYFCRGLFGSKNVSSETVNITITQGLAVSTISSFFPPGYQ

| Substance | pKd [1] | koff [1] [s⁻¹] | Kon [2] [M⁻¹ s⁻¹] | koff [2] [s⁻¹] | koff [3] [s⁻¹] | kon [3] [M⁻¹ s⁻¹] |
| --- | --- | --- | --- | --- | --- | --- |
| VRC01 (the wild type) (antibody) | 5.89 | 0.105 |  |  |  |  |
| VRC01 (wild-type Fc) IgG1 |  |  | 94000 | 0.279 |  |  |
| VRC01-IHH (non-FcRn-binding mutant) (antibody) | 5.35 | 0.187 |  |  |  |  |
| VRC01-LS (antibody) | 6.00 | 0.1 |  |  | 0.0558 | 223000 |
